Source: patent US8524454 (RESEARCH FOUNDATION OF STATE UNIVERSITY OF NEW YORK, dated 2013)

T1: recombinant extracellular fragment of TCblR produced in HEK 293 cells (human, UniProt Q9NPF0 32-247)
T1 construct: Highly glycosylated; also called EXC fragment of TCblR; recombinant TCblR extracellular domain
T1 sequence: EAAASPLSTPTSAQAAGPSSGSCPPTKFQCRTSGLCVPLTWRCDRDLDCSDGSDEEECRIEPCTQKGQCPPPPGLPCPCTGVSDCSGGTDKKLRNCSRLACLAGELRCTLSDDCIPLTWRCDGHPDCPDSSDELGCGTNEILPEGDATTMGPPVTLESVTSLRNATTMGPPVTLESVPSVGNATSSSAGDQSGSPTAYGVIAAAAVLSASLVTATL

T2: transcobalamin receptor (TCblR) purified from human placenta (human, UniProt Q9NPF0 32-282)
T2 construct: also called TCR; purified TCblR
T2 sequence: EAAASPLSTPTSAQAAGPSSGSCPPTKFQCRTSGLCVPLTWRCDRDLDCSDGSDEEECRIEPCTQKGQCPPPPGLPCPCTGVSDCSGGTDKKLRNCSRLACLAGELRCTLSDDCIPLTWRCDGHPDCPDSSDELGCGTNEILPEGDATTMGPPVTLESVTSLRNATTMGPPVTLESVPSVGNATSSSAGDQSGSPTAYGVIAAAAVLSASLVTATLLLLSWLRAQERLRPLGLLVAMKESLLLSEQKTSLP

B1: holo-transcobalamin (recombinant human TC saturated with cobalamin) (ligand, UniProt P20062 19-427, looked up)
chain: EMCEIPEMDSHLVEKLGQHLLPWMDRLSLEHLNPSIYVGLRLSSLQAGTKEDLYLHSLKLGYQQCLLGSAFSEDDGDCQGKPSMGQLALYLLALRANCEFVRGHKGDRLVSQLKWFLEDEKRAIGHDHKGHPHTSYYQYGLGILALCLHQKRVHDSVVDKLLYAVEPFHQGHHSVDTAAMAGLAFTCLKRSNFNPGRRQRITMAIRTVREEILKAQTPEGHFGNVYSTPLALQFLMTSPMRGAELGTACLKARVALLASLQDGAFQNALMISQLLPVLNHKTYIDLIFPDCLAPRVMLEPAAETIPQTQEIISVTLQVLSLLPPYRQSISVLAGSTVEDVLKKAHELGGFTYETQASLSGPYLTSVMGKAAGEREFWQLLRDPNTPLLQGIADYRPKDGETIELRLVSW
notes: also called TC-Cbl; holo TC
B2: recombinant extracellular (EXC) domain of TCblR produced in NSO myeloma cells, cleaved from the Fc fusion protein (receptor)
chain: SPLSTPTSAQAAGPSSGSCPPTKFQCRTSGLCVPLTWRCDRDLDCSDGSDEEECRIEPCTQKGQCPPPPGLPCPCTGVSDCSGGTDKKLRNCSRLACLAGELRCTLSDDCIPLTWRCDGHPDCPDSSDELGCGTNEILPEGDATTMGPPVTLESVTSLRNATTMGPPVTLESVPSVGNATSSSAGDQSGSPTAY
notes: Fully glycosylated; also called EXC fragment; EXC-TCblR; not shown: some amino acids of the original Fc fusion protein remained in the cleaved fragment; they are not specified

How the values were obtained:
[1] = target: T1, recombinant extracellular fragment of …; assay: not described; extracellular fragment expressed in HEK 293 cells
[2] = target: T2, transcobalamin receptor (TCblR) …; assay: radiolabeled Cbl-TC binding to purified TCblR competed by unlabeled holo-TC or apo-TC (FIG. 12)
[3] = target: B1; assay: binding studies with the recombinant extracellular domain

Binder	fold higher affinity (holo-TC against the apo protein) [1] [fold]	fold difference in affinity (holo TC against apo TC) [2] [fold]	binding result [3]
B1	28	28	
B2			binds
